In article PMC10078426:

Legend:
[1] = target: human IgG from serum (human) [IgG part: P01857]; assay: SPR; preparation #1
[2] = target: human IgG from serum (human) [IgG part: P01857]; assay: SPR; preparation #2
[3] = target: human IgG from serum (human) [IgG part: P01857]; assay: SPR

Substance	Kd [1]	Kd [2]	Kd [3]
protein G: β-galactosidase fusion protein (from UniProt P19909)	33.4 nM	41.8 nM	–
protein G:HRP (from UniProt P19909)	–	–	18.9 nM
